Reference: paper PMC10483038

Target: MBP-Vpu full length (HIV-1 Vpu fused to maltose binding protein) (HIV-1) (UniProt P05919)
Assay: cryo-EM structure; single-particle cryoEM of MBP-FL Vpu at 10 µM in 25 mM Tris pH 7.4, 150 mM NaCl, 100 µM TCEP; two maps at ~25 Å; protomers counted by docking MBP into the densities

Substance: MBP-Vpu full length (HIV-1 Vpu fused to maltose binding protein) (from UniProt P05919 1-82) (natural protein)
- stoichiometry N: 6 to 7
